Experimental data from patent US10213494B2, “Treatment of synucleinopathies” (The Brigham and Women's Hospital, Inc., priority 2007, dated 2019).

System: MES-syn cells
Assay: LDH release assay of cellular integrity
Format: cell-based, rodent
Details: enzyme cDNA 5 μg/10 cm dish, versus control vector transfected cells
Description: To confirm that the effect of Cathepsin D on lowering of αS in MES23.5 cells was specific and was not caused by a general decrease in cellular metabolism and integrity, the MTT and LDH assays were performed on MES-syn cells that had been co-transfected with the highest amount of Cathepsin D-encoding cDNA (5 μg/10 cm dish). Lysis of cells with 0.1% Triton-X® 100 served as a positive control, representing maximal cell death.
To confirm that the effect of Cathepsin F on lowering of αS was specific and was not caused by a general decrease in cellular integrity, the LDH assay was performed on MES-syn cells that had been co-transfected with Cathepsin F-encoding CTSF cDNA (5 μg/10 cm dish). Lysis of cells with 0.1% Triton-X 100 served as a positive control for cell toxicity, promoting maximal cell death.

Question: With “cathepsin D: human lysosomal aspartyl protease expressed from CTSD cDNA plasmid under a CMV promoter” as the substance, how does the LDH signal read?
Answer: The LDH signal was “identical to that of control vector transfected cells”.
